# Results taken from a protein production outcome set (Wang et al. 2014).
# Assay: label from the status in PepcDB records
# 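Note: failed if final PepcDB status was selected cloned or expressed and not failed if soluble or beyond.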
row,Sequence,protein production
1,MSSDVQKGDNLETPGARDLLLQTASNIMREGDVVDISLSELSLRSGLNSALVKYYFGNKAGLLKALLDRDMENIVKSVDALLAKDDMSPEAKLRRHISKCIDTYYDYPYLNRLLMRLVRDSDEAEAKRIADQYLLPLHRAYNRFIGEGVKAGVFRPINPQLFYFTVTGAADRFFSARLVLKHCFDQDTLTEQLRDSYREHTVDFIMAGILAH,not failed
2,MQEIEIFCDGSSLGNPGPGGYAAILRYKDKEKTISGGEEFTTNNRMELRALNEALKILKRPCRITLYSDSQYVCQAINVWLANWQKKNFSKVKNVDLWKEFLEVSKGHSIVAVWIKGHNGHAENERCDSLAKLEAQKRVKTTT,failed
3,MTDNPFATPTAPVQPPAREVPATTQPYAFIAVLALVTCLSFAVSLGIQWYNDIGEIRQRFSEHLQLMAPHWFTGLVFYAAANLLVLHAYREKRQLVEFRPLALLLIGYGLLNLVCGMLAGIGLAPLTLPFYQWVTAQSSYGVWLMAFNEAMSWVYLLLGSLLPLGLVLLGSRVNSPRLAEGEEARVAAWQVALGAALCFATLCFKLMQFLPYALLRYDEPWLYGLYLSGVALPAALLFGAVCTRLPARLQRFAAGRALLLAVVAMLLWSVALLAVGGGLALLMILGLAPAGIGYTLLVALLGVGLLALLWPIGRLATRWCYADQLAA,failed
4,MLSKIRPKVKQPLERIGKTLASLGITPNQLTIIGFLITLLASYEFYLQNQILAGIILAVGAFLDALDGALARATGKVSKFGGFLDSTIDRLSDASILFGIALGGLVRWDVTFLTLIGSYMVSYSRCRAELAGSGTLAIGIAERGERIIIIFIASLFNAVKIGVYLVAILSWITFIQRVYEAKKRLEMG,failed
5,MKMIQFWFDFASTYSYPAAMQIRQLKDEYRFSLHPFLLGGIFQKQGLNDSPFNAYPVKGQYMWRDLERICQKLDLKFHRPVLFPQNGLLAARIACQYASAPWIFDFICSVYQANFVQNLDIGQPETISQILQNMQLDCNDIIMTSTTDTAKQTLKQNGMIAESLHIFGAPSFVVENELFWGQDRLQDAIDWSQR,failed
6,MGTETVVHDQARWAMAAMERRLAVAKAQLLQQQQQKNEKDKKGTSDVDVSMKESHQADSLPTPSKTSIKKVDPKDDDSVAYTKLSHPVDENLLATNVKFSSAKGTIVDKVLHNLLRSGDSAQKYLQGTKSVKLDNYILLDNFVQSRSSASGSKKASQKDSKRSKSRMSMKRLKKSGALHIPKDLQKFDLFKPMHGMWESYMMKLIKVTGKIQLSLTLLSADLHGAFMFGNPSFFHKSVVLGYDLLSLTHFPKLNFSQPILLVTVAECKIASFTGVQGIMVRETSETFGIITRDDKFRGILKLFSPIYLP,failed
7,MEDSGAILCQISIFKDMLDQVNREIEANIQVTREIESQIGACSEIESSLSLKEPELTRSFLASQFEISGLISVTADSRNSLKLLEDEICCLRSEHSELITKTNREAVNINNCIVLDFV,failed
8,MDDKAFTKELDQWVEQLNECKQLNENQVRTLCEKAKEILTKESNVQEVRCPVTVCGDVHGQFHDLMELFRIGGKSPDTNYLFMGDYVDRGYYSVETVTLLVALKVRYPERITILRGNHESRQITQVYGFYDECLRKYGNANVWKYFTDLFDYLPLTALVDGQIFCLHGGLSPSIDTLDHIRALDRLQEVPHEGPMCDLLWSDPDDRGGWGISPRGAGYTFGQDISETFNHANGLTLVSRAHQLVMEGYNWCHDRNVVTIFSAPNYCYRCGNQAAIMELDDTLKYSFLQFDPAPRRGEPHVTRRTPDYFL,failed
9,MHSAALLQKVDELPRLPKAIAELLDVVNNEDSTVKAVSEKLSHDPVLSARVLRLANSARFGCSREVGTIDDAVVRLGMQTLRTLVIASAVVGAVPKVEGFDLADFWGNTFEVAIICQELAKRLGTLPEEAFTCGILHSIGELLIVNGDPAVAATISAAVADGADRNLMEKELLGYDNAEIGALLAQSWKFTPHLVKGIQFQNHPKSAEPYSKLAGMLAMAKQIAADWDKIPDDERTSWLAQINILAGIKVDLGGLAEKLAKMHGQGMEMGKQLA,not failed
10,MITAFVLIRPRGNRVQALGEAIAELPQVAEVYSVTGPYDLVALVRLKDVEELDDVVTQGILSLEGVERTETLLAFRAYPRRLLDQGFALGQG,not failed
11,MSLKKYQLVIVGYGGMGSYHVTLASAADNLEVHGVFDILAEKREAAAQKGLKIYESYEAVLADEKVDAVLIATPNDSHKELAISALEAGKHVVCEKPVTMTSEDLLAIMDVAKRVNKHFMAHQNRRWDEDFLIIKEMFEQKTIGEMFHLESRVHGANGIPGDWRHLKAHGGGMVLDWGVHLLDQLLFLVDSNVKSVSANLSFALGDEVDDGFVTFITFENGITAQIEVGTTNFIKLPRWYVKGTEGTGIIHDWDLSGEIVKPTALAKTSEPTPIKAGQGLTKTMAPPSEEATNTLSLPAPAKLAPSFYNNFVDVLNNTSEPIVQNEEVYQVLKLIEAIFEAAETNRTVHSIEGHHHHHH,not failed
12,VRQKGIDIIFMLDISNSMLARDTAPDRLTHAKTELLQISRRLGDGRKALLLFAGTPVVQCPLTDDEEDFEILLDMAAPELITTQGTDYRRAFDAALKLTNSGGELSSNETVLVLASDGEDHGNDLGDIATAMKTRGVHLHVIGVGGVQPVPIPMQGGPKRDQQGKIVLTSFKPEPLASLIKTAKGKFYYSRPDAPVHDAVADDIAAEAAEARW,failed
13,TERVNLWMHDHGVRRPFRPVVADGYKKTINKNHSVNGSAPNFVHACDAAHLLRTVNAARAEGITQFALVHDSFGSLPSHAARFRQIIREEFVRMYEEHDVLTEVLEQAKCDLDEHNDKLSALVDMRADLTGKLNIKEVLNAEYAFAYP,failed
14,PIKQSFLLKRSGNSLNKEWKKKYVTLSSNGFLLYHPSINDYIHSTHGKEMDLLRTTVKVPGKRPPRAISAFGPSASINGLVKDMSTVQMGEGLEATTPMPSPSPSPSSLQPPPDQTSKHLL,failed
15,MTISYPAKEFLQTIFKTPYLKNLYLSPTMSIYDTLIGSPATTLKRYLLKSDVAVMYTSPSTYVENEDSSFRFNQNCSPMPPWVLGTKSKTIINTLPPKKSHKRTNTDIIGIHSMTSQNSSGSSYFQLLDLLADLGELIYDDEAMKGFYYEFMNLDNKNAFNNDENLNNLMITFTNLGGASNANESGLKIGATTSGVKTKVDEDIEPLCRHYKCATMDSSFIHWITHWNLLDQVFSSNFVGEGEYYTDPNEVKRILENRDLDTRSKQGKSLYIVDLEGSVRIHVMVNTSLYGMIVLLEVRHITLAKKKNDVDDEREQENEDSS,failed
16,MLDNLQLTDILATVAVLVSITFLIYFAGKTLITANSFQKGVSLYQQKDYPGAEAAFRKVIAINSTNDVVRLFLGDVLREQGKVAEATELFQEVINRSPKNPQGYLRLATILMQQEKQAEAKTNLQKAQELLQKQRQPETAKRVAKLLEQMNTKTI,failed
17,MMAVESSKRLASETPVSLFIPYSHHITDTIISTKNAEYLSIWKIDGRSHQSASEEDIFQWARELNNTLRGIASANLSLWTHIVRRRVYEYPDSTFDKMFCYQLDEKYRQSFTGYNLMVNDLYLTVVFQPIADKVMSFFSQHERETLDQKKMRQESCIKALNDINRTLGQSFKRYGGELLGTYEKNGHAYSSALEFLAMLVNGEYSPMPICRDRFADYMSINRPFFSKWGALGELRTTSGIRRFGMMEIKEYDTTTKPGQFNVLLESDFEFVLTQSFSVLSRHAAKDYLQRHQRNLIDARDVATSQIEQIDEALNQLISGHFVMGEHHCTLTIYGDTVQQVRDYMAKANAALLEVAVLPKPVDLAIEAGYWAQLPANWKWRPRPAPITSLNFLSFSSFHNFMSGKPTGNPWGPAVTILKTISKTPLYFNFHASKLEEDATDKRLLGNTAIIGQSGSGKTVLLGFLLAQAQKFKPTTVVFDKDRGMEIAIRAMGGRYLTFKPGRQSGFNPFQLPPTQDNLTFLKQFVKKLAEASSEITHRDEEEINQAVMSIMSSNINPSLRRLSFLLQFLPNPHLNDYNSHPSVHTRLIKWCEGGDYGWLFDNPTDALDLSTHQIYGFDITEFLDNPETRTPVMMYLLYRTEGMISGQRFMYIFDEFWKPLQDPYFEDLAKNKQKTIRKQNGIFVFATQEPTDALESNIAKTLIQQCATYIFLANPKANYEDYTEGFKLTDAEFELIKGIGEFSRQFLIKQGDQSALAELNLGKFHVTIDGKTVEQNFSDELLVLSGTPDNAELVENIIAEVGDDPALWLPVFLQHIKTNRRTT,failed
18,MPGFEVLYQAAALCLTYPDDDFRARLPLLREAAPQLRGFTDHAAATGQGELQAHYVEVFDFRNRHSLYLSWWTDGDTRNRGMSLVRFKELYRAHGLEFTGEELPDFLPAVLEFVSRTGDMGMLTEHRDALDQLRARLTAFGTPYACVLDAVCATLPPAPTGARR,failed
